Measurements published in patent US20240301086A1 (APTEVO RESEARCH AND DEVELOPMENT, published 2024).
Read-outs that look alike come from different tables or passages of the source.

Legend:
[1] = biological target: T1, human Fcγ receptor IIA, R167 variant (human, UniProt P12318 36-218); assay: SPR (Biacore T200), construct amine-coupled, Fcγ receptor titrated 375-6000 nM, 1:1 fit
T1 construct: also called Type IIA R167
T1 sequence (looked up): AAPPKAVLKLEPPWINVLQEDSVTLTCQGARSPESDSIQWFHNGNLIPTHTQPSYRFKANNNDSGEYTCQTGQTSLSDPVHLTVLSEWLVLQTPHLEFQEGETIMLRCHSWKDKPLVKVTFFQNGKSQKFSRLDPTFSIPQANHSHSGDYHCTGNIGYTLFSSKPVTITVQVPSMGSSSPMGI
Method: (§1) The Fc region incorporated into anti-PSMA bispecific constructs contained mutations intended to reduce or abolish binding to common human and cynomolgus Fc gamma receptors. SPR experiments were conducted at 25° C. in HBS-EP+ with 0.2% BSA buffer on a Biacore T200 system to evaluate the impact of these mutations on binding. For these experiments, three flow cells of a CM5 sensor chip were immobilized with anti-PSMA bispecifics by standard amine coupling to a response level of ˜2000 RU. A blank immobilization was performed on flow cell #1 for purposes of background signal subtraction. Both human and cynomolgus monkey Fcγ receptors (purchased from R&D Systems) were diluted in HBS-EP+ with 0.2% BSA to 4-6 μM and then flowed as analytes at 30 μL/min for 120 seconds followed by a 240 second dissociation step. No regeneration step was required. Blank-subtracted sensorgrams were visually inspected for binding to each of the Fcγ receptor proteins. […] Attenuated binding to Fcγ receptors IIA (both polymorphic variants) and IIB/C was observed. PSMA01107 and PSMA01108 share the same Fc amino acid sequence and therefore equivalent Fcγ receptor binding behavior was expected.
(§2) TSC266 (PSMA×CD3 bispecific antibody) and another protein containing a wild-type IgG1 Fc sequence were also analyzed for comparison. Sensorgrams obtained from kinetic SPR measurements were analyzed by the double subtraction method in the Biacore T200 evaluation software. Kinetic parameters were derived from a one-to-one binding fit model and reported below in Table 8. Both TSC266 and PSMA01107 show reduced binding compared to a wild type IgG1 Fc.

[2] = biological target: T2, human Fcγ receptor IIA, H167 variant (human, UniProt P12318 36-218); assay: as above
T2 sequence (looked up): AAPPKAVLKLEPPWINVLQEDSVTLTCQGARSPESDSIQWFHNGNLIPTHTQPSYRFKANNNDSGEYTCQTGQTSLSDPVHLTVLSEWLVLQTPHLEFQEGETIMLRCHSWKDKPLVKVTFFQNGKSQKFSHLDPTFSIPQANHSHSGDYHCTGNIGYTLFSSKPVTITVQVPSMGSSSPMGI
Method: as §1, §2

[3] = biological target: T3, Human PSMA ECD-AFH (TSC033), recombinant dimeric PSMA ECD (human, UniProt Q04609 44-750); assay: SPR (Biacore), recombinant dimeric PSMA ECD
T3 construct: SEC-purified dimer; also called HuPSMA-AFH; Avi-His-Human PSMA ECD
T3 sequence (Q04609 other isoform, or with tags, fused parts or gaps): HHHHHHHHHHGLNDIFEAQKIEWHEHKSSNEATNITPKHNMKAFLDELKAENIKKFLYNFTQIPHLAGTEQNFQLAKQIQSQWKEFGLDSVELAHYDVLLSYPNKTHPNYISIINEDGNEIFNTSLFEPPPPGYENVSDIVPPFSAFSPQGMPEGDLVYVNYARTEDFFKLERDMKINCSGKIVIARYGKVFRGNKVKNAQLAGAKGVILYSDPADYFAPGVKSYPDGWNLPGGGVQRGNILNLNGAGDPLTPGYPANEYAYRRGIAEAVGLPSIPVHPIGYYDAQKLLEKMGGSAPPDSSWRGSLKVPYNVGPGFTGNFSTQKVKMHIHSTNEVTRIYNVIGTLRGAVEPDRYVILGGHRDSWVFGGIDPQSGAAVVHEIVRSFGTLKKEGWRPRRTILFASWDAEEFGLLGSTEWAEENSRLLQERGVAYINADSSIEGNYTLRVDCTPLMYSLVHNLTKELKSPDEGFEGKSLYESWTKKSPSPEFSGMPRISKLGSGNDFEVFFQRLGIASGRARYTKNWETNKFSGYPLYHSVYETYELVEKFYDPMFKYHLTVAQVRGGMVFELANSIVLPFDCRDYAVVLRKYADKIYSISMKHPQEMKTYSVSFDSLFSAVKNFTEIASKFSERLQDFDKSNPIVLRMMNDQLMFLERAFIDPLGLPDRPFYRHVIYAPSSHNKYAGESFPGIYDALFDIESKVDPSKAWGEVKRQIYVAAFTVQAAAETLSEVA
Method: (§3) Mouse anti-human IgG (GE, BR-1008-39) at 25 μg/ml in 10 mM sodium acetate pH 5.0 was immobilized at a density of ˜2,000-4,000 response units (RU) onto each flow cell of a CM5 research-grade sensor chip (GE) by standard amine coupling chemistry. Each anti-PSMA protein at approximately 40 nM in dPBS with 0.2% BSA buffer was captured in a flow cell with the immobilized anti-human IgG at a flow rate of […] for up to 30 seconds, leaving one flow cell surface unmodified as the reference. Using a multi-cycle kinetics mode, a buffer blank and […] different concentrations of ECD ranging from 1 nM to 243 nM were sequentially injected through each flow cell at 30 μL/min with association times varying from 300-600 seconds and dissociation times varying from 600-1200 seconds. Regeneration was achieved by injection of 3 M MgCl₂ at a flow rate of 30 μL/min for up to 40 seconds followed by dPBS with 0.2% BSA buffer stabilization for 1 min.
(§4) The KD was determined for a set of PSMA×CD3 bispecific proteins binding to recombinant dimeric PSMA ECD using SPR. In comparison to the constructs analyzed in Table 3, which all had the anti-PSMA scFv in the VL-VH orientation, the constructs in Table 11 have sequences with the reverse the order of the variable domains. The constructs below utilize the PSMA01023 anti-PSMA sequence as a basis.

[4] = biological target: T3, Human PSMA ECD-AFH (TSC033), …; assay: SPR (Biacore), recombinant dimeric PSMA ECD; remark: listed apart in the source
Method: as §3, §4

[5] = biological target: T4, recombinant human FcRn/b2M complex (human, UniProt P55899 24-297; P61769 21-119, limits assumed); assay: SPR at pH 6.0, hFcRn/b2M amine-coupled, construct 1-81 nM as analyte, steady-state affinity model
T4 construct: also called hFcRn/b2M; neonatal Fc receptor
T4 sequence (P55899 24-297 limits assumed, chain 1 of 2): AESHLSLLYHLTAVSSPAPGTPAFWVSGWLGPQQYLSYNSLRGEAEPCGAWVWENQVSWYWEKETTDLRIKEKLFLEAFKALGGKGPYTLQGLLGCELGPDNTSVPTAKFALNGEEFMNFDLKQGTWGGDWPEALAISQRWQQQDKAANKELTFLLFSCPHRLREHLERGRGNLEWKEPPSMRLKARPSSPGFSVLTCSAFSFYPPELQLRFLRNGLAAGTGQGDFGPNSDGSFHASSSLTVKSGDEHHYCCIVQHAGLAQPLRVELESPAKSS
T4 sequence (P61769 21-119 limits assumed, chain 2 of 2): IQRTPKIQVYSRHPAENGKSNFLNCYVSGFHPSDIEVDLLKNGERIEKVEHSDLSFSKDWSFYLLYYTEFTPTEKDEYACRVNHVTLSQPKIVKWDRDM
Method: Recombinant FcRn/b2M protein was generated via transient transfection of HEK-293 cells with a bi-cistronic vector containing the genes for both FcRn and […]. The complex was purified using IMAC chromatography and subsequently buffer exchanged into PBS buffer after verifying purity of the IMAC eluate by analytical SEC. Purified hFcRn/b2M at 5 μg/ml in 10 mM sodium acetate (pH 5.0) was immobilized on a CM5 chip by direct amine coupling chemistry to a level of ˜400 RU. A reference flow cell was left blank.
Different concentrations of the Fc variant protein (1-81 nM by 3-fold dilutions in HBS-EP+ with 0.2% BSA running buffer at pH 6.0) including running buffer as blank were injected in randomized order at 30 μL/min for 180 seconds followed by a 180 second dissociation period. Optimal regeneration was achieved by two injections of HBS-EP+ with 0.2% BSA at pH 7.5 at a flow rate of […] for 30 seconds followed by running buffer stabilization for 1 minute.
Sensorgrams obtained from kinetic SPR measurements were analyzed by the double subtraction method. […] Buffer reference was subtracted from analyte binding responses, and the final double-referenced data were analyzed with Biacore T200 Evaluation software (2.0, GE), globally fitting data to derive kinetic parameters. […]

B1: PSMA01107 Anti-PSMA scFv x Fc x linker x Anti CD3 scFv; Anti PSMA scFv x Fc (bispecific antibody)
chain 1: QVQLVQSGAEVKKPGASVKVSCKASGYTFTDYYMHWVRQAPGQGLEWMGYFNPYNDYTRYAQKFQGRVTMTRDTSTSTVYMELSSLRSEDTAVYYCARSDGYYDAMDYWGQGTTVTVSSGGGGSGGGGSGGGGSGGGGSDIQMTQSPSSLSASVGDRVTITCRASKSISKYLAWYQQKPGKAPKLLIHSGSSLESGVPSRFSGSGSGTEFTLTISSLQPDDFATYYCQQHIEYPWTFGQGTKVEIKEPKSSDKTHTCPPCPAPPAAAPSVFLFPPKPKDTLMISRTPEVTCVVVDVSHEDPEVKFNWYVDGVEVHNAKTKPREEQYNSTYRVVSVLTVLHQDWLNGKEYKCAVSNKALPAPIEKTISKAKGQPREPQVYTLPPSRDELTKNQVSLWCLVKGFYPSDIAVEWESNGQPENNYKTTPPVLDSDGSFFLYSKLTVDKSRWQQGNVFSCSVMHEALHNHYTQKSLSLSPGGGGSPSQVQLVQSGAEVKKPGASVKVSCKASGYTFTRSTMHWVRQAPGQGLEWIGYINPSSAYTNYAQKFQGRVTLTADKSTSTAYMELSSLRSEDTAVYYCASPQVHYDYNGFPYWGQGTLVTVSSGGGGSGGGGSGGGGSGGGGSDIQMTQSPSSLSASVGDRVTITCRASSSVSYMNWYQQKPGKAPKRWIYDSSKLASGVPSRFSGSGSGTDFTLTISSLQPEDFATYYCQQWSRNPPTFGQGTKVEIKRS
chain 2: QVQLVQSGAEVKKPGASVKVSCKASGYTFTDYYMHWVRQAPGQGLEWMGYFNPYNDYTRYAQKFQGRVTMTRDTSTSTVYMELSSLRSEDTAVYYCARSDGYYDAMDYWGQGTTVTVSSGGGGSGGGGSGGGGSGGGGSDIQMTQSPSSLSASVGDRVTITCRASKSISKYLAWYQQKPGKAPKLLIHSGSSLESGVPSRFSGSGSGTEFTLTISSLQPDDFATYYCQQHIEYPWTFGQGTKVEIKEPKSSDKTHTCPPCPAPPAAAPSVFLFPPKPKDTLMISRTPEVTCVVVDVSHEDPEVKFNWYVDGVEVHNAKTKPREEQYNSTYRVVSVLTVLHQDWLNGKEYKCAVSNKALPAPIEKTISKAKGQPREPQVYTLPPSRDELTKNQVSLSCAVKGFYPSDIAVEWESNGQPENNYKTTPPVLDSDGSFFLVSKLTVDKSRWQQGNVFSCSVMHEALHNHYTQKSLSLSPG
notes: Heterodimer, bivalent for PSMA and monovalent for CD3 (VH-VL scFv at the C-terminus); also called PSMA1107
B1 gave a Kd [1] of 5300 nM, a Kd [2] of 19900 nM and a Kd [3] of less than 10 nM. For the same binder, the Kd [4] was 3.4 nM, the koff [4] was 8.5e-05 s⁻¹ and the kon [4] was 29000 M⁻¹ s⁻¹. The Kd [5] was 59 nM.

B2: PSMA01108 Anti-PSMA scFv x Fc x linker x Anti CD3 scFv; Anti PSMA scFv x Fc (bispecific antibody)
chain 1: QVQLVQSGAEVKKPGASVKVSCKASGYTFTDYYMHWVRQAPGQGLEWMGYFNPYNDYTRYAQKFQGRVTMTRDTSTSTVYMELSSLRSEDTAVYYCARSDGYYDAMDYWGQGTTVTVSSGGGGSGGGGSGGGGSGGGGSDIQMTQSPSSLSASVGDRVTITCRASKSISKYLAWYQQKPGKAPKLLIHSGSSLESGVPSRFSGSGSGTEFTLTISSLQPDDFATYYCQQHIEYPWTFGQGTKVEIKEPKSSDKTHTCPPCPAPPAAAPSVFLFPPKPKDTLMISRTPEVTCVVVDVSHEDPEVKFNWYVDGVEVHNAKTKPREEQYNSTYRVVSVLTVLHQDWLNGKEYKCAVSNKALPAPIEKTISKAKGQPREPQVYTLPPSRDELTKNQVSLWCLVKGFYPSDIAVEWESNGQPENNYKTTPPVLDSDGSFFLYSKLTVDKSRWQQGNVFSCSVMHEALHNHYTQKSLSLSPGGGGSPSDIQMTQSPSSLSASVGDRVTITCRASSSVSYMNWYQQKPGKAPKRWIYDSSKLASGVPSRFSGSGSGTDFTLTISSLQPEDFATYYCQQWSRNPPTFGQGTKVEIKGGGGSGGGGSGGGGSGGGGSQVQLVQSGAEVKKPGASVKVSCKASGYTFTRSTMHWVRQAPGQGLEWIGYINPSSAYTNYAQKFQGRVTLTADKSTSTAYMELSSLRSEDTAVYYCASPQVHYDYNGFPYWGQGTLVTVSS
chain 2: QVQLVQSGAEVKKPGASVKVSCKASGYTFTDYYMHWVRQAPGQGLEWMGYFNPYNDYTRYAQKFQGRVTMTRDTSTSTVYMELSSLRSEDTAVYYCARSDGYYDAMDYWGQGTTVTVSSGGGGSGGGGSGGGGSGGGGSDIQMTQSPSSLSASVGDRVTITCRASKSISKYLAWYQQKPGKAPKLLIHSGSSLESGVPSRFSGSGSGTEFTLTISSLQPDDFATYYCQQHIEYPWTFGQGTKVEIKEPKSSDKTHTCPPCPAPPAAAPSVFLFPPKPKDTLMISRTPEVTCVVVDVSHEDPEVKFNWYVDGVEVHNAKTKPREEQYNSTYRVVSVLTVLHQDWLNGKEYKCAVSNKALPAPIEKTISKAKGQPREPQVYTLPPSRDELTKNQVSLSCAVKGFYPSDIAVEWESNGQPENNYKTTPPVLDSDGSFFLVSKLTVDKSRWQQGNVFSCSVMHEALHNHYTQKSLSLSPG
notes: also called PSMA1108; PSAM01108
B2 gave a Kd [3] of less than 10 nM, a Kd [4] of 3.1 nM and a koff [4] of 9e-05 s⁻¹. For the same binder, the kon [4] was 29000 M⁻¹ s⁻¹ and the Kd [5] was 27 nM.

B3: TSC266 Anti PSMA scFv x Anti CD3 scFv ADAPTIR (bispecific antibody)
chain: DIQMTQSPSAMSASVGDRVTITCRASKSISKYLAWFQQKPGKVPKLRIHSGSTLQSGVPSRFSGSGSGTEFTLTISSLQPEDFATYYCQQHIEYPWTFGQGTKVEIKRGGGGSGGGGSGGGGSQVQLVQSGAEVKKPGASVKVSCKASGYTFTDYYMHWVRQAPGQGLEWMGYFNPYNDYTRYAQKFQGRVTMTRDTSISTAYMELSSLRSDDTAVYYCARSDGYYDAMDYWGQGTTVTVSSSEPKSSDKTHTCPPCPAPEAAGAPSVFLFPPKPKDTLMISRTPEVTCVVVDVSHEDPEVKFNWYVDGVEVHNAKTKPREEQYNSTYRVVSVLTVLHQDWLNGKAYACAVSNKALPAPIEKTISKAKGQPREPQVYTLPPSRDELTKNQVSLTCLVKGFYPSDIAVEWESNGQPENNYKTTPPVLDSDGSFFLYSKLTVDKSRWQQGNVFSCSVMHEALHNHYTQKSLSLSPGQRHNNSSLNTGTQMAGHSPNSQVQLVESGGGVVQPGRSLRLSCKASGYTFTRSTMHWVRQAPGQGLEWIGYINPSSAYTNYNQKFKDRFTISADKSKSTAFLQMDSLRPEDTGVYFCARPQVHYDYNGFPYWGQGTPVTVSSGGGGSGGGGSGGGGSAQDIQMTQSPSSLSASVGDRVTMTCSASSSVSYMNWYQQKPGKAPKRWIYDSSKLASGVPARFSGSGSGTDYTLTISSLQPEDFATYYCQQWSRNPPTFGGGTKLQITSSS
notes: The anti-PSMA domain is that of PSMA01012 and the anti-CD3 domain is DRA222; also called unoptimized parent construct; TSC266 control (PSMA × CD3 bispecific protein)
B3 was tested, and the Kd [1] was 1500 nM and the Kd [2] was 20000 nM.
